Measured values from the supplement of paper PMC9112550, “Optimization of the antimicrobial peptide Bac7 by deep mutational scanning” (BMC Biology, 2022).

System: Escherichia coli TOP10
Experiment: shrunken log2 fold change of peptide-encoding DNA abundance (4.5 h post-induction vs induction); higher = less antimicrobial activity (less host growth inhibition)
Conditions: time post-induction: 4.5 h; library: site-saturation at positions 5, 18, 19, 20
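Also: peptides expressed intracellularly from a pBAD plasmid library in pooled LB shake-flask culture, induced with 0.3% L-arabinose, DNA abundance read by NGS, three biological replicates, DESeq2 with apeglm shrinkage.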

RRIRGRPPRLPRPRPRPCNDPRP
shrunken log2 fold change: 0.376

RRIRLRPPRLPRPRPRPHPIPRP
shrunken log2 fold change: 0.0174

RRIRNRPPRLPRPRPRPPMDPRP
shrunken log2 fold change: -0.508

RRIRVRPPRLPRPRPRPATLPRP
shrunken log2 fold change: -0.00452

RRIRMRPPRLPRPRPRPSRNPRP
shrunken log2 fold change: 0.476

RRIRGRPPRLPRPRPRPINYPRP
shrunken log2 fold change: 0.000824

RRIRDRPPRLPRPRPRPGPWPRP
shrunken log2 fold change: 0.287

RRIRKRPPRLPRPRPRPEEEPRP
shrunken log2 fold change: 0.0391

RRIRLRPPRLPRPRPRPPATPRP
shrunken log2 fold change: 0.725

RRIRVRPPRLPRPRPRPCGPPRP
shrunken log2 fold change: -0.0876

RRIRCRPPRLPRPRPRPGFQPRP
shrunken log2 fold change: -0.356

RRIRNRPPRLPRPRPRPSWLPRP
shrunken log2 fold change: -0.361

RRIRGRPPRLPRPRPRPFWVPRP
shrunken log2 fold change: 0.15

RRIRIRPPRLPRPRPRPRDYPRP
shrunken log2 fold change: -0.14

RRIRDRPPRLPRPRPRPGWEPRP
shrunken log2 fold change: 0.00884

RRIRARPPRLPRPRPRPMWHPRP
shrunken log2 fold change: 0.131

RRIRIRPPRLPRPRPRPWTWPRP
shrunken log2 fold change: -0.204

RRIRFRPPRLPRPRPRPFYLPRP
shrunken log2 fold change: -0.787

RRIRIRPPRLPRPRPRPMPKPRP
shrunken log2 fold change: -0.0638

RRIRNRPPRLPRPRPRPMTYPRP
shrunken log2 fold change: -0.0655

RRIRRRPPRLPRPRPRPVDVPRP
shrunken log2 fold change: 1.09

RRIRKRPPRLPRPRPRPQDMPRP
shrunken log2 fold change: -0.036

RRIRIRPPRLPRPRPRPDPKPRP
shrunken log2 fold change: -0.183

RRIRKRPPRLPRPRPRPLGYPRP
shrunken log2 fold change: 0.202

RRIRARPPRLPRPRPRPSMDPRP
shrunken log2 fold change: 1.4

RRIRRRPPRLPRPRPRPPPVPRP
shrunken log2 fold change: 0.931

RRIRERPPRLPRPRPRPVIYPRP
shrunken log2 fold change: -0.248

RRIRFRPPRLPRPRPRPRDRPRP
shrunken log2 fold change: 0.387

RRIRWRPPRLPRPRPRPPMDPRP
shrunken log2 fold change: 0.0637

RRIRGRPPRLPRPRPRPVFYPRP
shrunken log2 fold change: -0.0818

RRIRFRPPRLPRPRPRPFFDPRP
shrunken log2 fold change: -0.065

RRIRFRPPRLPRPRPRPRSDPRP
shrunken log2 fold change: 0.193

RRIRFRPPRLPRPRPRPCGHPRP
shrunken log2 fold change: -0.129

RRIRLRPPRLPRPRPRPQTNPRP
shrunken log2 fold change: -0.497

RRIRGRPPRLPRPRPRPCEPPRP
shrunken log2 fold change: 0.241

RRIRQRPPRLPRPRPRPHCHPRP
shrunken log2 fold change: -0.164

RRIRRRPPRLPRPRPRPLKFPRP
shrunken log2 fold change: -0.149

RRIRWRPPRLPRPRPRPTPPPRP
shrunken log2 fold change: 0.639

RRIRQRPPRLPRPRPRPFPTPRP
shrunken log2 fold change: -0.0177

RRIRYRPPRLPRPRPRPWVGPRP
shrunken log2 fold change: -0.352

RRIRIRPPRLPRPRPRPVDIPRP
shrunken log2 fold change: -0.405

RRIRRRPPRLPRPRPRPVWQPRP
shrunken log2 fold change: 0.395

RRIRNRPPRLPRPRPRPWGLPRP
shrunken log2 fold change: -0.123

RRIRIRPPRLPRPRPRPCFFPRP
shrunken log2 fold change: -0.503

RRIRKRPPRLPRPRPRPCKHPRP
shrunken log2 fold change: -0.11

RRIRWRPPRLPRPRPRPATLPRP
shrunken log2 fold change: -0.0879

RRIRERPPRLPRPRPRPTTQPRP
shrunken log2 fold change: 0.299

RRIRCRPPRLPRPRPRPRGYPRP
shrunken log2 fold change: 0.471

RRIRERPPRLPRPRPRPIQVPRP
shrunken log2 fold change: -0.0549

RRIRGRPPRLPRPRPRPMPSPRP
shrunken log2 fold change: 0.431

RRIRCRPPRLPRPRPRPQIEPRP
shrunken log2 fold change: -0.335

RRIRDRPPRLPRPRPRPKDCPRP
shrunken log2 fold change: 0.173

RRIRGRPPRLPRPRPRPVSEPRP
shrunken log2 fold change: 0.797

RRIRNRPPRLPRPRPRPLADPRP
shrunken log2 fold change: -0.00474

RRIRSRPPRLPRPRPRPWFIPRP
shrunken log2 fold change: -0.311

RRIRSRPPRLPRPRPRPNKPPRP
shrunken log2 fold change: -0.23

RRIRHRPPRLPRPRPRPCDIPRP
shrunken log2 fold change: -0.0274

RRIRQRPPRLPRPRPRPVYGPRP
shrunken log2 fold change: -0.258

RRIRKRPPRLPRPRPRPMGLPRP
shrunken log2 fold change: -0.000777

RRIRFRPPRLPRPRPRPSELPRP
shrunken log2 fold change: -0.0817

RRIRTRPPRLPRPRPRPLLPPRP
shrunken log2 fold change: 0.112

RRIRARPPRLPRPRPRPGNKPRP
shrunken log2 fold change: -0.186

RRIRLRPPRLPRPRPRPWPNPRP
shrunken log2 fold change: -0.0032

RRIRERPPRLPRPRPRPHSIPRP
shrunken log2 fold change: -0.0535

RRIRFRPPRLPRPRPRPWIEPRP
shrunken log2 fold change: -0.224

RRIRERPPRLPRPRPRPSRGPRP
shrunken log2 fold change: 0.49

RRIRERPPRLPRPRPRPLPQPRP
shrunken log2 fold change: -0.06

RRIRFRPPRLPRPRPRPLNHPRP
shrunken log2 fold change: -0.608

RRIRKRPPRLPRPRPRPYWDPRP
shrunken log2 fold change: -0.219

RRIRRRPPRLPRPRPRPWMFPRP
shrunken log2 fold change: 0.0935

RRIRERPPRLPRPRPRPGTHPRP
shrunken log2 fold change: -0.394

RRIRKRPPRLPRPRPRPDIDPRP
shrunken log2 fold change: 2.44

RRIRMRPPRLPRPRPRPPFSPRP
shrunken log2 fold change: 0.239

RRIRARPPRLPRPRPRPYCSPRP
shrunken log2 fold change: 0.0743

RRIRHRPPRLPRPRPRPKSSPRP
shrunken log2 fold change: -0.0395

RRIRTRPPRLPRPRPRPVIFPRP
shrunken log2 fold change: -0.335

RRIRARPPRLPRPRPRPTFQPRP
shrunken log2 fold change: 0.529

RRIRTRPPRLPRPRPRPIPMPRP
shrunken log2 fold change: -0.38

RRIRPRPPRLPRPRPRPEDGPRP
shrunken log2 fold change: 0.0827

RRIRVRPPRLPRPRPRPTGYPRP
shrunken log2 fold change: -0.239

RRIRNRPPRLPRPRPRPIRVPRP
shrunken log2 fold change: -0.0394

RRIRPRPPRLPRPRPRPHLQPRP
shrunken log2 fold change: 0.152

RRIRARPPRLPRPRPRPWCSPRP
shrunken log2 fold change: -0.155

RRIRTRPPRLPRPRPRPHDQPRP
shrunken log2 fold change: 0.0187

RRIRHRPPRLPRPRPRPEWYPRP
shrunken log2 fold change: 0.0294

RRIRRRPPRLPRPRPRPSNMPRP
shrunken log2 fold change: -0.311

RRIRKRPPRLPRPRPRPQPPPRP
shrunken log2 fold change: 0.672

RRIRARPPRLPRPRPRPHKCPRP
shrunken log2 fold change: -0.205

RRIRQRPPRLPRPRPRPSMSPRP
shrunken log2 fold change: -0.393

RRIRERPPRLPRPRPRPGYFPRP
shrunken log2 fold change: -0.0348

RRIRNRPPRLPRPRPRPSTEPRP
shrunken log2 fold change: 0.118
